Measurements from patent US20230243822A1, “MOLECULAR DISEASE PROFILE AND USE THEREOF FOR MONITORING AND TREATING RHEUMATAOID ARTHRITIS” (JANSSEN BIOTECH, INC., priority 2020, published 2023).

System: 4-analyte M-DP panel (CRP, CXCL10, CXCL13, SAA)
Assay: Pharmacodynamic M-DP score, 4-analyte panel CRP, CXCL10, CXCL13, SAA (SOMAscan), clinical studies in RA
Format: in vivo, human
Conditions: 4-analyte; for M-DP score mean difference ± SD, Good vs. No / M-DP score mean ± SD, DAS28-CRP response group Good / M-DP score mean ± SD, DAS28-CRP response group Moderate / M-DP score mean ± SD, DAS28-CRP response group No: response at week 24
Source text: Serum samples and data from eight interventional clinical studies with seven different active treatments for RA or placebo treatment were obtained and analyzed: sirukumab (anti-IL-6) and placebo treatments in SIRROUND-M (NCT01689532; Takeuchi T, et al. Arthritis Res Ther. 2018 Mar. 7; 20(1): 42), SIRROUND-D (NCT01604343; Takeuchi T, et al. Ann Rheum Dis. 2017 Dec.; 76(12): 2001-2008), and SIRROUND-T (NCT01606761; Aletaha D, et al. Lancet. 2017 Mar. 25; 389(10075): 1206-1217); sirukumab and adalimumab (anti-TNF-alpha) treatments in SIRROUND-H (NCT02019472; Taylor PC, et al. Ann Rheum Dis. 2018 May; 77(5): 658-666); golimumab (anti-TNF-alpha) treatment in GO-FURTHER (NCT00973479; Weinblatt ME, et al. Ann Rheum Dis. 2013 March; 72(3): 381-9); guselkumab (anti-IL-23p19), ustekinumab (anti-IL-12/IL-23p40), and placebo treatments in CNTO1275ARA2001 (NCT01645280; Cox JD, et al. […]); JNJ-40346527 (colony-stimulating factor-1 inhibitor) and placebo treatments in 40346527ARA2001 (NCT01597739; Genovese MC, et al. J Rheumatol. 2015 October; 42(10): 1752-60). Plasma samples were obtained from the RA-MAP TACERA study (Cope AP, et al. Nat Rev Rheumatol. 2018 January; 14(1): 53-60) before (baseline) and 6-months after initiation of conventional synthetic disease-modifying anti-rheumatic drugs (csDMARDs). Details of treatment dose groups, concomitant methotrexate use, and previous experience with csDMARDs and biologics are reported in Table 1. The studies were conducted in accordance with the Declaration of Helsinki. The study protocols were reviewed and approved by an independent ethics committee or institutional review board for each study center. Written informed consent was obtained from all patients before study entry. Additional study details and patient characteristics are available in the referenced publications for each study. For SIRROUND-D and SIRROUND-T studies, sets of serum samples from demographically-matched healthy controls were obtained from commercial sources (BioIVT, Westbury, N.Y.).
Serum samples from baseline (week 0) and the time points indicated in Table 1 were provided for quantification of 1189 serum analytes using the SomaScan v3.1 platform (SomaLogic, Boulder, Colo.; www.somalogic.com), with the exception of RA-MAP TACERA, for which plasma samples were analyzed for 1301 analytes using the SomaScan v3.2 platform. For some studies, a redacted dataset reporting data for a subset of the analytes was obtained. Relative fluorescence unit (RFU) data were sequentially normalized for hybridization controls (internal standards per samples), median signal across all samples (assumes same total protein concentration across sample set), and calibration controls (common sample standards across analysis plates). Samples failed quality control standards defined by Somalogic were excluded from analyses. The normalized RFU values were log2-transformed for subsequent analyses.
Changes in analyte expression levels were calculated for individual samples as the log2 transform of the ratio of the analyte level at the indicated time point (visit level) over the analyte level at baseline (baseline level) for a given subject, i.e., log 2(visit level/baseline level). Changes in RA disease-associated analytes per sample were summarized using a pharmacodynamic (PD) molecular disease profile (M-DP) score, defined as the median value of the log 2(visit level/baseline level) values for analytes in the defined M-DP analyte set. […] PD M-DP scores in the log 2(visit level/baseline level) scale can be transformed to percent change from baseline, using the transformation: (2^M-DP score−1)×100%.
In selecting the best minimal set of analytes that performs similarly to the full 14-analyte set, analyte sets that results in significant associations between DAS28-CRP EULAR good vs. no response with p<0.05 for each study were prioritized (Table 4). […]

[1] = SIRROUND-D, score at week 4, sirukumab SC 50 mg q4w
[2] = SIRROUND-D, score at week 4, sirukumab SC 100 mg q2w
[3] = SIRROUND-D, score at week 24, sirukumab SC 50 mg q4w
[4] = SIRROUND-D, score at week 24, sirukumab SC 100 mg q2w
[5] = SIRROUND-H, score at week 4, sirukumab SC 50 mg q4w or adalimumab SC 40 mg q2w
[6] = SIRROUND-M, score at week 4, sirukumab SC 50 mg q4w
[7] = SIRROUND-M, score at week 4, sirukumab SC 100 mg q2w
[8] = SIRROUND-T, score at week 4, sirukumab SC 50 mg q4w
[9] = SIRROUND-T, score at week 4, sirukumab SC 100 mg q2w
[10] = SIRROUND-T, score at week 24, sirukumab SC 50 mg q4w
[11] = SIRROUND-T, score at week 24, sirukumab SC 100 mg q2w

B1: Sirukumab (antibody, chains of the INN, looked up, V domains shown)
VH: EVQLVESGGGLVQPGGSLRLSCAASGFTFSPFAMSWVRQAPGKGLEWVAKISPGGSWTYYSDTVTGRFTISRDNAKNSLYLQMNSLRAEDTAVYYCARQLWGYYALDIWGQGTTVTVSS
VL: EIVLTQSPATLSLSPGERATLSCSASISVSYMYWYQQKPGQAPRLLIYDMSNLASGIPARFSGSGSGTDFTLTISSLEPEDFAVYYCMQWSGYPYTFGGGTKVEIK
notes: a human anti-interleukin-6 (IL-6) monoclonal antibody
M-DP score mean ± SD, All treated [1]: −1.09 ± 0.80 log2 (fold/baseline)
M-DP score mean difference ± SD, Good vs. No [1]: −0.47 ± 0.79 (0.0012) log2 (fold/baseline)
M-DP score mean ± SD, DAS28-CRP response group Good [1]: −1.26 ± 0.78 log2 (fold/baseline)
M-DP score mean ± SD, DAS28-CRP response group Moderate [1]: −1.05 ± 0.76 log2 (fold/baseline)
M-DP score mean ± SD, DAS28-CRP response group No [1]: −0.79 ± 0.81 log2 (fold/baseline)
M-DP score mean ± SD, All treated [2]: −1.21 ± 0.78 log2 (fold/baseline)
M-DP score mean difference ± SD, Good vs. No [2]: −0.47 ± 0.76 (0.0041) log2 (fold/baseline)
M-DP score mean ± SD, DAS28-CRP response group Good [2]: −1.39 ± 0.75 log2 (fold/baseline)
M-DP score mean ± SD, DAS28-CRP response group Moderate [2]: −1.01 ± 0.75 log2 (fold/baseline)
M-DP score mean ± SD, DAS28-CRP response group No [2]: −0.92 ± 0.81 log2 (fold/baseline)
M-DP score mean ± SD, All treated [3]: −1.43 ± 0.82 log2 (fold/baseline)
M-DP score mean ± SD, DAS28-CRP response group Good [3]: −1.50 ± 0.83 log2 (fold/baseline)
M-DP score mean ± SD, DAS28-CRP response group Moderate [3]: −1.46 ± 0.57 log2 (fold/baseline)
M-DP score mean ± SD, DAS28-CRP response group No [3]: 0.27 ± 0.00 log2 (fold/baseline)
M-DP score mean ± SD, All treated [4]: −1.79 ± 0.78 log2 (fold/baseline)
M-DP score mean ± SD, DAS28-CRP response group Good [4]: −1.80 ± 0.80 log2 (fold/baseline)
M-DP score mean ± SD, DAS28-CRP response group Moderate [4]: −1.84 ± 0.95 log2 (fold/baseline)
M-DP score mean ± SD, DAS28-CRP response group No [4]: −1.59 ± 0.19 log2 (fold/baseline)
M-DP score mean ± SD, All treated [5]: −0.88 ± 0.69 log2 (fold/baseline)
M-DP score mean difference ± SD, Good vs. No [5]: −0.40 ± 0.59 (0.0549) log2 (fold/baseline)
M-DP score mean ± SD, DAS28-CRP response group Good [5]: −0.92 ± 0.65 log2 (fold/baseline)
M-DP score mean ± SD, DAS28-CRP response group Moderate [5]: −0.95 ± 0.74 log2 (fold/baseline)
M-DP score mean ± SD, DAS28-CRP response group No [5]: −0.52 ± 0.41 log2 (fold/baseline)
M-DP score mean ± SD, All treated [6]: −1.69 ± 0.76 log2 (fold/baseline)
M-DP score mean difference ± SD, Good vs. No [6]: −0.96 ± 0.66 (0.0010) log2 (fold/baseline)
M-DP score mean ± SD, DAS28-CRP response group Good [6]: −1.92 ± 0.63 log2 (fold/baseline)
M-DP score mean ± SD, DAS28-CRP response group Moderate [6]: −1.34 ± 0.75 log2 (fold/baseline)
M-DP score mean ± SD, DAS28-CRP response group No [6]: −0.96 ± 0.85 log2 (fold/baseline)
M-DP score mean ± SD, All treated [7]: −1.87 ± 0.75 log2 (fold/baseline)
M-DP score mean ± SD, DAS28-CRP response group Good [7]: −1.86 ± 0.69 log2 (fold/baseline)
M-DP score mean ± SD, DAS28-CRP response group Moderate [7]: −1.99 ± 0.94 log2 (fold/baseline)
M-DP score mean ± SD, DAS28-CRP response group No [7]: −1.21 ± 0.43 log2 (fold/baseline)
M-DP score mean ± SD, All treated [8]: −1.02 ± 0.84 log2 (fold/baseline)
M-DP score mean difference ± SD, Good vs. No [8]: −0.39 ± 0.73 (0.0126) log2 (fold/baseline)
M-DP score mean ± SD, DAS28-CRP response group Good [8]: −0.91 ± 0.75 log2 (fold/baseline)
M-DP score mean ± SD, DAS28-CRP response group Moderate [8]: −0.82 ± 0.79 log2 (fold/baseline)
M-DP score mean ± SD, DAS28-CRP response group No [8]: −0.50 ± 0.70 log2 (fold/baseline)
M-DP score mean ± SD, All treated [9]: −0.79 ± 0.76 log2 (fold/baseline)
M-DP score mean difference ± SD, Good vs. No [9]: −0.34 ± 0.81 (0.0416) log2 (fold/baseline)
M-DP score mean ± SD, DAS28-CRP response group Good [9]: −1.13 ± 0.80 log2 (fold/baseline)
M-DP score mean ± SD, DAS28-CRP response group Moderate [9]: −1.05 ± 0.93 log2 (fold/baseline)
M-DP score mean ± SD, DAS28-CRP response group No [9]: −0.79 ± 0.83 log2 (fold/baseline)
M-DP score mean ± SD, All treated [10]: −0.85 ± 0.81 log2 (fold/baseline)
M-DP score mean difference ± SD, Good vs. No [10]: −0.43 ± 0.79 (0.0167) log2 (fold/baseline)
M-DP score mean ± SD, DAS28-CRP response group Good [10]: −0.98 ± 0.81 log2 (fold/baseline)
M-DP score mean ± SD, DAS28-CRP response group Moderate [10]: −0.88 ± 0.81 log2 (fold/baseline)
M-DP score mean ± SD, DAS28-CRP response group No [10]: −0.55 ± 0.76 log2 (fold/baseline)
M-DP score mean ± SD, All treated [11]: −1.03 ± 0.83 log2 (fold/baseline)
M-DP score mean difference ± SD, Good vs. No [11]: −0.44 ± 0.78 (0.0067) log2 (fold/baseline)
M-DP score mean ± SD, DAS28-CRP response group Good [11]: −1.18 ± 0.80 log2 (fold/baseline)
M-DP score mean ± SD, DAS28-CRP response group Moderate [11]: −1.19 ± 0.90 log2 (fold/baseline)
M-DP score mean ± SD, DAS28-CRP response group No [11]: −0.74 ± 0.75 log2 (fold/baseline)
